Assay results published in patent US20170298146A1 (MODIQUEST B V, published 2017).
Non-standard residues stand in square brackets, D forms with d. No end group written: not given here. Cit = NC(=O)NCCC[C@H](N)C(=O)O

What was measured:
[1] = molecular target: T1, Histone 2A citrulline-containing peptide 12 (human, also: biotin label); test: peptide ELISA, 10 ug/well
T1 peptide: NKLLG[Cit]VTIAQG
Experimental: (§1) Biotin and citrulline-containing peptides derived from histone 2A were immobilized on NEUTRAVIDIN®-coated 96-well ELISA plates (0.3 μg/well). CFC-1 and CFC-0 were coated at the same concentration and served as positive and negative controls respectively for specific anti-citrulline reactivity and as coating controls. Non-coated wells were used to test for aspecific binding of the antibodies. […] Detection of bound anti-citrulline antibodies was performed by incubating the wells with rabbit-anti-human-HRP (1:2000) for one hour at RT followed by incubation with TMB substrate. The resulting OD (y-axis) is a measure for antibody binding.
(§2) Ninety-six-well ELISA plates were coated with NEUTRAVIDIN® (0.1 μg/well) by overnight incubation at 4° C. Wells were washed five times with PBS-TWEEN®-20 (PBS-T) and blocked by a one-hour incubation with PBS-T+1% Bovine serum albumin (BSA) at room temperature (RT). After five more washes with PBS-T, wells were incubated for one hour at RT with histone-derived citrulline and biotin-containing peptides (0.3 μg/well). […] Wells were washed five times with PBS-T and incubated with rabbit-anti-human-HRP (1:2000) for one hour at RT followed by five washes with PBS-T and three wash steps with PBS. Wells were incubated for five minutes with TMB substrate before stopping the reaction with 2 M H₂SO₄. Optical density was measured by 450 nm and is a measure for the affinity of the antibodies used.

[2] = molecular target: T2, Histone 2A citrulline-containing peptide 7 (human, also: biotin label); test: peptide ELISA, 10 ug/well
T2 peptide: GNYSE[Cit]VGAGAP
Experimental: as §1, §2

[3] = molecular target: T3, Histone 2A citrulline-containing peptide 6 (human, also: biotin label); test: peptide ELISA, 10 ug/well
T3 peptide: VHRLL[Cit]KGNYSE
Experimental: as §1, §2

[4] = molecular target: T4, Histone 2A citrulline-containing peptide 8 (human, also: biotin label); test: peptide ELISA, 10 ug/well
T4 peptide: AGNAA[Cit]DNKKTR
Experimental: as §1, §2

[5] = molecular target: T5, Histone 2A citrulline-containing peptide 10 (human, also: biotin label); test: peptide ELISA, 10 ug/well
T5 peptide: TRIIP[Cit]HLQLAI
Experimental: as §1, §2

[6] = molecular target: T6, Histone 2A citrulline-containing peptide 1 (human, also: biotin label); test: peptide ELISA, 10 ug/well
T6 construct: also called AAASGXGKQGGK
T6 peptide: AAASG[Cit]GKQGGK
Experimental: as §1, §2

[7] = molecular target: T7, Histone 2A citrulline-containing peptide 3 (human, also: biotin label); test: peptide ELISA, 10 ug/well
T7 peptide: KSRSS[Cit]AGLQFP
Experimental: as §1, §2

[8] = molecular target: T8, huPAD4 deiminated human recombinant histone H2B (human); test: ELISA, 2 ug/well
T8 construct: also called H2B/p4
Experimental: (§3) CFC-1 and CFC-0 were coated at the same concentration and served as positive and negative controls, respectively, for specific anti-citrulline reactivity and as coating controls. Non-coated wells were used to test for aspecific binding of the antibodies. […] Detection of bound anti-citrulline antibodies was performed by incubating the wells with rabbit-anti-human-HRP (1:2000) for one hour at RT followed by incubation with TMB substrate. The resulting OD (y-axis) is a measure for antibody binding. H1=recombinant histone 1; H1/p2=huPAD2 recombinant histone 1; H1/p4=huPAD4 recombinant histone 1 and so forth (x-axis).

[9] = molecular target: T9, huPAD2 deiminated human recombinant histone H3 (human); test: ELISA, 2 ug/well
T9 construct: also called H3/p2
Experimental: as §3

[10] = molecular target: T10, huPAD4 deiminated human recombinant histone H2A (human); test: ELISA, 2 ug/well
T10 construct: also called H2A/p4; huPAD4 deiminated histone 2A
Experimental: as §3

[11] = molecular target: T11, huPAD2 deiminated human recombinant histone H2A (human); test: ELISA, 2 ug/well
T11 construct: also called H2A/p2
Experimental: as §3

[12] = molecular target: T12, human recombinant histone H2A (human); test: ELISA, 2 ug/well
T12 construct: Non-deiminated
Experimental: as §3

[13] = molecular target: T13, human recombinant histone H2B (human); test: ELISA, 2 ug/well
T13 construct: Non-deiminated
Experimental: as §3

[14] = molecular target: human recombinant histone H4 (human, UniProt P62805 2-103); test: ELISA, 2 ug/well
Experimental: as §3

[15] = molecular target: T14, huPAD2 deiminated human recombinant histone H2B (human); test: ELISA, 2 ug/well
T14 construct: also called H2B/p2
Experimental: as §3

[16] = molecular target: T15, huPAD4 deiminated human recombinant histone H3 (human); test: ELISA, 2 ug/well
T15 construct: also called H3/p4
Experimental: as §3

CFC-1 [17] = molecular target: T16, CFC-1; test: ELISA, 2 ug/well
T16 construct: Positive control for anti-citrulline reactivity; also called cfc1 XG
Experimental: as §3

[18] = molecular target: T17, Histone 2A citrulline-containing peptide 11 (human, also: biotin label); test: peptide ELISA, 0.000128 ug/well
T17 peptide: LQLAI[Cit]NDEELN
Experimental: as §1, §2

[19] = molecular target: T18, Histone 2A citrulline-containing peptide 5 (human, also: biotin label); test: peptide ELISA, 0.000128 ug/well
T18 peptide: VGRVH[Cit]LLRKGN
Experimental: as §1, §2

[20] = molecular target: T3, Histone 2A citrulline-containing …; test: peptide ELISA, 0.000128 ug/well
Experimental: as §1, §2

[21] = molecular target: T4, Histone 2A citrulline-containing …; test: peptide ELISA, 0.000128 ug/well
Experimental: as §1, §2

[22] = molecular target: T5, Histone 2A citrulline-containing …; test: peptide ELISA, 0.000128 ug/well
Experimental: as §1, §2

[23] = molecular target: T6, Histone 2A citrulline-containing …; test: peptide ELISA, 0.000128 ug/well
Experimental: as §1, §2

[24] = molecular target: T19, Histone 2A citrulline-containing peptide 2 (human, also: biotin label); test: peptide ELISA, 0.000128 ug/well
T19 peptide: AKAKS[Cit]SSRAGL
Experimental: as §1, §2

CFC-1 [25] = molecular target: T16, CFC-1; test: peptide ELISA, 0.000128 ug/well
Experimental: as §1, §2

[26] = molecular target: T20, Histone 2A citrulline-containing peptide 9 (human, also: biotin label); test: peptide ELISA, 0.000128 ug/well
T20 peptide: DNKKT[Cit]IIPRHL
Experimental: as §1, §2

[27] = molecular target: T7, Histone 2A citrulline-containing …; test: peptide ELISA, 0.000128 ug/well
Experimental: as §1, §2

B1: RhmAb2.102 (antibody, human IgG1, lambda)
heavy: not shown
light: QSVLTQPPSMSAAPGQKVTISCSGSSSNIGNNYVSWYQQVPGTAPKLLIYDDNKRPSGIPGRFSGSKSATSATLGITGLQAGDEADYYCGSWDDNLSVVLFGGGTKLTVLGQPKAAPSVTLFPPSSEELQANKATLVCLISDFYPGAVTVAWKADSSPVKAGVETTTPSKQSNNKYAASSYLSLTPEQWKSHRSYSCQVTHEGSTVEKTVAPTECS
notes: Human IgG1 lambda; also called Rhm2.102
Q: What does the source list for B1?
A: OD [1]: 0.083 OD; OD [2]: 0.08 OD; OD [3]: 1.41 OD; OD [4]: 0.082 OD; OD [5]: 0.091 OD; OD [6]: 3.11 OD; OD [7]: 0.619 OD; OD [8]: 0.069 OD; OD [9]: 1.94 OD; OD [10]: 3.13 OD; OD [11]: 3.18 OD; OD [12]: 0.115 OD; OD [13]: 0.076 OD; OD [14]: 0.208 OD; OD [15]: 0.086 OD; OD [16]: 0.439 OD; OD (CFC-1 [17]): 3.38 OD; OD [18]: 0.059 OD; OD [19]: 0.059 OD; OD [20]: 0.054 OD; OD [21]: 0.055 OD; OD [22]: 0.057 OD; OD [23]: 0.128 OD; OD [24]: 0.075 OD; OD (CFC-1 [25]): 0.749 OD; OD [26]: 0.055 OD; OD [27]: 0.063 OD
